Test results from publication PMC7985710.

What was measured:
[1] = molecular target: R174C-SR-BI (human variant of scavenger receptor class B type I) (human) (UniProt Q8WTV0); assay: radioligand binding; [^125I]-HDL binding: transfected COS-7 cells incubated with 10 μg/ml double-radiolabeled human HDL for 1.5 h at 4°C
[2] = molecular target: WT scavenger receptor class B type I (human SR-BI) (human) (UniProt Q8WTV0); assay: as above
[3] = molecular target: Human HDL, double-radiolabeled; assay: [125I]-HDL cell association on transfected COS-7 cells; details: COS-7 cells transiently expressing WT or mutant SR-BI; n = 3 independent transfections; empty vector bar est. 30 % of WT; parent: est. 100; read off a plot

For “Human HDL, double-radiolabeled (complex)”, the HDL binding, percent of WT-SR-BI [1] was 31.3% and the HDL binding (raw value) (ng/mg protein) [2] was 22.7.

With “WT scavenger receptor class B type I (human SR-BI) (from UniProt Q8WTV0-2) D185R” the percent of parent [3] was 82 % of WT.

For “WT scavenger receptor class B type I (human SR-BI) (from UniProt Q8WTV0-2) R174K”, the percent of parent [3] was 72 % of WT.

With “WT scavenger receptor class B type I (human SR-BI) (from UniProt Q8WTV0-2) R174D; D185R” the percent of parent [3] was 44 % of WT.
